# Biological target: carcinoembryonic antigen (CEA) (UniProt P06731 35-685)
# Assay: sandwich FLISA (antibody capture, aptamer nanoparticle probe); CEA on anti-CEA antibody plate; linear 0.01-20 ng/mL, LOD 7.6 pg/mL (assay values, not affinity); CEA capture 37 C 1 h, aptamer probe room temperature 1 h; washes in PBS 10 mM pH 7.4; probe blocked with 1% BSA; read-out with 4 mM OPD in 10 mM HAc-NaAc pH 5.5, 3 h, 565 nm
# Conditions: protein: commercial
# Chain of carcinoembryonic antigen (CEA) (P06731 35-685): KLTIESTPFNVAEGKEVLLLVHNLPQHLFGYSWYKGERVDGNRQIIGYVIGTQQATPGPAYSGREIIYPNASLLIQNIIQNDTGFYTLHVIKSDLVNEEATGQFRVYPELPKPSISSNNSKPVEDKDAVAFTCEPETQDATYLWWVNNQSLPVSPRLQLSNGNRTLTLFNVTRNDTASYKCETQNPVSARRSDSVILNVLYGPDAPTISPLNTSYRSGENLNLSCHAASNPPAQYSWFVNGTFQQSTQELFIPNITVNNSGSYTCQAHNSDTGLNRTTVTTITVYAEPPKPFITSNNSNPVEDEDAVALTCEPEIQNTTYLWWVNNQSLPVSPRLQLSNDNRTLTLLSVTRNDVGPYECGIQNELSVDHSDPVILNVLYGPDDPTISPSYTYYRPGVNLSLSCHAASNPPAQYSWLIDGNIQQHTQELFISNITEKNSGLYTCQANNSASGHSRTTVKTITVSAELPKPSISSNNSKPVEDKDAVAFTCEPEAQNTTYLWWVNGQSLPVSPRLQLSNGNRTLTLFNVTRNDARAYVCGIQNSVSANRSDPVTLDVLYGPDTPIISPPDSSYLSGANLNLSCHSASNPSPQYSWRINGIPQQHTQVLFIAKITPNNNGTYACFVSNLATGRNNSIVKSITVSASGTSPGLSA
binder,measurement,value
"TTTTATACCAGCTTATTCAATT (ssDNA, 5'-NH2; coupled by glutaraldehyde to CP/ZIF-8/PDA nanoparticles) [CEA aptamer]",binding result,binds
